Measured values as given in patent EP4628097A1 (Innovent Biologics (Suzhou) Co., Ltd., dated 2025).

Legend:
[1] = molecular target: Tie2-Fc (Beijing Sino Biological, Catalog No. 10700-H03H) (UniProt Q02763); experiment: ELISA: biotin-Ang2 (0.2 ug/mL) on coated Tie2-Fc, no antibody (blank of the blocking assay)
human VEGF165 = molecular target: T1, human VEGF165 (human, UniProt P15692-4 27-191); experiment: BLI (ForteBio), bivalent binding; * exceeds ForteBio detection limit
T1 construct: all are put under this molecule; also called VEGF A; VEGFA

human Ang2 = molecular target: T2, human Ang2 (human, UniProt O15123 19-496, limits assumed); experiment: blocking ELISA: biotinylated hAng2 on coated hTie2, antibody titrated from 300 nM
T2 construct: Bought proteins; also called hAng2-biotin; Ang2-Bio (Sino)
T2 sequence (looked up): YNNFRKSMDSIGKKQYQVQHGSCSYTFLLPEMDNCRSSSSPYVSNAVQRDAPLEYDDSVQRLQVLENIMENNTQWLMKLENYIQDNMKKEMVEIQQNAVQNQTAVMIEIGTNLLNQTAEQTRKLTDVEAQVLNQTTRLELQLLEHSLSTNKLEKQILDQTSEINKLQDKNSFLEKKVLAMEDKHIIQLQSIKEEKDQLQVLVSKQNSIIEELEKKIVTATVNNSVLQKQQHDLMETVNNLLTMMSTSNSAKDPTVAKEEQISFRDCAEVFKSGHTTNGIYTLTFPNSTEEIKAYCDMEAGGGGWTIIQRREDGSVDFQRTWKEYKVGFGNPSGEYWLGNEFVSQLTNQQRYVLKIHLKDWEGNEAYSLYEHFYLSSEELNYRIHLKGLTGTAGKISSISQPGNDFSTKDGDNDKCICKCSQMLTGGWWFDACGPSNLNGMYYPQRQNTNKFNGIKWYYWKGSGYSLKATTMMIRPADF

T1 sequence (P15692 other isoform, or with tags, fused parts or gaps limits assumed): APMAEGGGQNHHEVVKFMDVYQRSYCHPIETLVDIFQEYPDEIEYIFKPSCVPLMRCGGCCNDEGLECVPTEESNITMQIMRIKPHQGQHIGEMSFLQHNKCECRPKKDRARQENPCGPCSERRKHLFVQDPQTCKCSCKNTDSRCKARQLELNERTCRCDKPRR
Tie2-Fc (Beijing Sino Biological, Catalog No. 10700-H03H), sequence (Q02763 23-745 limits assumed): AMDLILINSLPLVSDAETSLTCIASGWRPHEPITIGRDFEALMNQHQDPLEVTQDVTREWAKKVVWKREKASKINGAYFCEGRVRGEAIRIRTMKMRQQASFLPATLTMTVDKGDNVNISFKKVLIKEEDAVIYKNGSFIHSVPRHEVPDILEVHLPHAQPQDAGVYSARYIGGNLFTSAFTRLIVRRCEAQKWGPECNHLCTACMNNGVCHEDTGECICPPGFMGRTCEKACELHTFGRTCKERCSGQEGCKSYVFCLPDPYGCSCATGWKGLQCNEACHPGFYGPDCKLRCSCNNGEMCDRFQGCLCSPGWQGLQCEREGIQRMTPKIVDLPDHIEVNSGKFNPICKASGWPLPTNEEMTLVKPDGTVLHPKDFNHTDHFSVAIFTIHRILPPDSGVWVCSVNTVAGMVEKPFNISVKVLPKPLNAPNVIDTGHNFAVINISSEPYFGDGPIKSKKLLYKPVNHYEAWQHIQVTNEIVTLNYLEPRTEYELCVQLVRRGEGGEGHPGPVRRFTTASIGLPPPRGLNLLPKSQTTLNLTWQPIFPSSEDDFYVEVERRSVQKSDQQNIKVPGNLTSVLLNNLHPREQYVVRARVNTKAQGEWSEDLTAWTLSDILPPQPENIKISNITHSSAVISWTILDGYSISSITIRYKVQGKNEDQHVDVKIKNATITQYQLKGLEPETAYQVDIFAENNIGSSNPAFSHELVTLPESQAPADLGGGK

Question: For “human Ang2 (from UniProt O15123 19-496) (ligand)”, which OD450nm [1] is on record?
Answer: Its OD450nm is 3.45 OD450nm.

B1: LA46E11 (VHH)
VHH: QVQLEESGGGLVQPGGSLRLSCVASGSIFSINAMGWHRQAPGSQRELVATMIGGSSTFYADSVNGRFTISRDNAKNTVYLQMNSLKLEDTAVYYCYADVTGRSGTSIWNKRDDYWGQGTLVTVSS
notes: Alpaca immune-library VHH; also called LA46E11 (VEGFA VHH); anti-VEGF A VHH antibody
Question: With B1 as the molecule, how does the koff (human VEGF165) read?
Answer: The koff was ≤ 0.0002 s⁻¹.

B2: IEX04-008 (bispecific antibody)
chain: EVQLLESGGGLVQPGGSLRLSCAASGSIFSINAMGWHRQAPGKQRELVATMIGGSSTFYAESVQGRFTISRDNSKNTVYLQMNSLRAEDTAVYYCYADVTGRSGTSIWNKRDDYWGQGTQVTVSSGGGGSGGGGSEVQLLESGGGLVQPGGSLRLSCAASGSIFSINAMGWHRQAPGKQRELVATMIGGSSTFYAESVQGRFTISRDNSKNTVYLQMNSLRAEDTAVYYCYADVTGRSGTSIWNKRDDYWGQGTQVTVSSGGGGSGGGGSEVQLLESGGGLVQPGGSLRLSCAASGFALDYYAIGWFRQAPGKGLEGVSCISSGEGSTYYADSVKGRFTISRDNSKNTVYLQMNSLRAEDTAVYYCATDSRGDDVACEGLRRNEYDYWGQGTLVTVSS
notes: expressed in 293 cells; also called LA46E11.8 (VHH) + linker + LA46E11.8 (VHH) + LA24C11.10
Question: Does B2 bind (human Ang2)?
Answer: Result: binds
